Measurements: article PMC2745324 (Biochemistry, 2009)
Read-outs that look alike come from different tables or passages of the source.

Columns and labels:
[1] = target: human adenylosuccinate lyase K246E mutant (human) (UniProt P30566)
[2] = target: human adenylosuccinate lyase K246E mutant (human) (UniProt P30566); assay: AUC
SEC = target: the molecule itself; assay: SEC
AUC [3] = target: the molecule itself; assay: AUC
AUC [4] = target: the molecule itself; assay: AUC; remark: listed apart in the source
AUC [5] = target: the molecule itself; assay: AUC; remark: listed apart in the source

| Vmax of SAMP cleavage at 25 °C [1] | percent as dimer (D-12mer model) [2] | stoichiometry N [2] | Molecule | stoichiometry N (SEC) | percent as monomer (M-Tet model) (AUC [3]) | percent as tetramer (M-Tet model) (AUC [3]) | percent as monomer (M-Tet model) (AUC [4]) | percent as tetramer (M-Tet model) (AUC [4]) | stoichiometry N (AUC [5]) |
| --- | --- | --- | --- | --- | --- | --- | --- | --- | --- |
| 0.23 µmol/min/mg | 94% | 2 | human adenylosuccinate lyase K246E mutant (from UniProt P30566 1-481) (enzyme) |  |  |  |  |  |  |
|  |  |  | human adenylosuccinate lyase, wild type (enzyme) MAAGGDHGSPDSYRSPLASRYASPEMCFVFSDRYKFRTWRQLWLWLAEAEQTLGLPITDEQIQEMKSNLENIDFKMAAEEEKRLRHDVMAHVHTFGHCCPKAAGIIHLGATSCYVGDNTDLIILRNALDLLLPKLARVISRLADFAKERASLPTLGFTHFQPAQLTTVGKRCCLWIQDLCMDLQNLKRVRDDLRFRGVKGTTGTQASFLQLFEGDDHKVEQLDKMVTEKAGFKRAFIITGQTYTRKVDIEVLSVLASLGASVHKICTDIRLLANLKEMEEPFEKQQIGSSAMPYKRNPMRSERCCSLARHLMTLVMDPLQTASVQWFERTLDDSANRRICLAEAFLTADTILNTLQNISEGLVVYPKVIERRIRQELPFMATENIIMAMVKAGGSRQDCHEKIRVLSQQAASVVKQEGGDNDLIERIQVDAYFSPIHSQLDHLLDPSSFTGRASQQVQRFLEEEVYPLLKPYESVMKVKAE | 4 | 32% | 68% | 20% | 80% |  |
|  |  |  | human adenylosuccinate lyase L311V mutant (enzyme) MAAGGDHGSPDSYRSPLASRYASPEMCFVFSDRYKFRTWRQLWLWLAEAEQTLGLPITDEQIQEMKSNLENIDFKMAAEEEKRLRHDVMAHVHTFGHCCPKAAGIIHLGATSCYVGDNTDLIILRNALDLLLPKLARVISRLADFAKERASLPTLGFTHFQPAQLTTVGKRCCLWIQDLCMDLQNLKRVRDDLRFRGVKGTTGTQASFLQLFEGDDHKVEQLDKMVTEKAGFKRAFIITGQTYTRKVDIEVLSVLASLGASVHKICTDIRLLANLKEMEEPFEKQQIGSSAMPYKRNPMRSERCCSLARHVMTLVMDPLQTASVQWFERTLDDSANRRICLAEAFLTADTILNTLQNISEGLVVYPKVIERRIRQELPFMATENIIMAMVKAGGSRQDCHEKIRVLSQQAASVVKQEGGDNDLIERIQVDAYFSPIHSQLDHLLDPSSFTGRASQQVQRFLEEEVYPLLKPYESVMKVKAE | 4 | 32% | 68% | 40% | 60% |  |
|  |  |  | human adenylosuccinate lyase R194C mutant (enzyme) MAAGGDHGSPDSYRSPLASRYASPEMCFVFSDRYKFRTWRQLWLWLAEAEQTLGLPITDEQIQEMKSNLENIDFKMAAEEEKRLRHDVMAHVHTFGHCCPKAAGIIHLGATSCYVGDNTDLIILRNALDLLLPKLARVISRLADFAKERASLPTLGFTHFQPAQLTTVGKRCCLWIQDLCMDLQNLKRVRDDLCFRGVKGTTGTQASFLQLFEGDDHKVEQLDKMVTEKAGFKRAFIITGQTYTRKVDIEVLSVLASLGASVHKICTDIRLLANLKEMEEPFEKQQIGSSAMPYKRNPMRSERCCSLARHLMTLVMDPLQTASVQWFERTLDDSANRRICLAEAFLTADTILNTLQNISEGLVVYPKVIERRIRQELPFMATENIIMAMVKAGGSRQDCHEKIRVLSQQAASVVKQEGGDNDLIERIQVDAYFSPIHSQLDHLLDPSSFTGRASQQVQRFLEEEVYPLLKPYESVMKVKAE | 4 | 33% | 67% | 37% | 63% |  |
|  |  |  | human adenylosuccinate lyase R396C mutant (enzyme) MAAGGDHGSPDSYRSPLASRYASPEMCFVFSDRYKFRTWRQLWLWLAEAEQTLGLPITDEQIQEMKSNLENIDFKMAAEEEKRLRHDVMAHVHTFGHCCPKAAGIIHLGATSCYVGDNTDLIILRNALDLLLPKLARVISRLADFAKERASLPTLGFTHFQPAQLTTVGKRCCLWIQDLCMDLQNLKRVRDDLRFRGVKGTTGTQASFLQLFEGDDHKVEQLDKMVTEKAGFKRAFIITGQTYTRKVDIEVLSVLASLGASVHKICTDIRLLANLKEMEEPFEKQQIGSSAMPYKRNPMRSERCCSLARHLMTLVMDPLQTASVQWFERTLDDSANRRICLAEAFLTADTILNTLQNISEGLVVYPKVIERRIRQELPFMATENIIMAMVKAGGSCQDCHEKIRVLSQQAASVVKQEGGDNDLIERIQVDAYFSPIHSQLDHLLDPSSFTGRASQQVQRFLEEEVYPLLKPYESVMKVKAE |  | 40% | 60% | 32% | 68% | 4 |
|  |  |  | human adenylosuccinate lyase R396H mutant (enzyme) MAAGGDHGSPDSYRSPLASRYASPEMCFVFSDRYKFRTWRQLWLWLAEAEQTLGLPITDEQIQEMKSNLENIDFKMAAEEEKRLRHDVMAHVHTFGHCCPKAAGIIHLGATSCYVGDNTDLIILRNALDLLLPKLARVISRLADFAKERASLPTLGFTHFQPAQLTTVGKRCCLWIQDLCMDLQNLKRVRDDLRFRGVKGTTGTQASFLQLFEGDDHKVEQLDKMVTEKAGFKRAFIITGQTYTRKVDIEVLSVLASLGASVHKICTDIRLLANLKEMEEPFEKQQIGSSAMPYKRNPMRSERCCSLARHLMTLVMDPLQTASVQWFERTLDDSANRRICLAEAFLTADTILNTLQNISEGLVVYPKVIERRIRQELPFMATENIIMAMVKAGGSHQDCHEKIRVLSQQAASVVKQEGGDNDLIERIQVDAYFSPIHSQLDHLLDPSSFTGRASQQVQRFLEEEVYPLLKPYESVMKVKAE |  | 34% | 66% |  |  | 4 |
